Laboratory results as given in PMC3152652.

How the values were obtained:
[1] = HEK 293 co-expression, Western blot of conditioned medium; conditions: glycan lost; control: wild type
[2] = HEK 293, Western blot densitometry, pro-BNP to BNP conversion; conditions: glycan lost; control: wild type

Substance: pro-BNP (pro-B-type natriuretic peptide): T71A
- other: proteolytic processing [1]: increases
- other: proteolytic processing [2]: increases
